Experimental data reported in patent US20230134571A1 (INTERNATIONAL AIDS VACCINE INITIATIVE, published 2023).
Numbering of substitutions follows the chain as printed.

Tests used:
Test in all cases: cell-based or functional assay
[1] = biological target: HIV Env, isolate 1054_07_TC4_1499 (HIV)
[2] = biological target: HIV Env, isolate CAAN5342.A2 (HIV)
HIV Env, isolate PVO.4 = HIV Env, isolate PVO.4 (HIV)
HIV Env, isolate CNE17 = HIV Env, isolate CNE17 (HIV)
[3] = biological target: HIV Env, isolate 1394C9G1(Rev-) (HIV)
HIV Env, isolate 249MB10 = HIV Env, isolate 249MB10 (HIV)
[4] = biological target: HIV Env, isolate 7030102001E5(Rev-) (HIV)
[5] = biological target: HIV Env, isolate BF1266.431a (HIV)
[6] = biological target: HIV Env, isolate Ce0393_C3 (HIV)
[7] = biological target: HIV Env, isolate Ce1176_A3 (HIV)
[8] = biological target: HIV Env, isolate Ce703010054_2A2 (HIV)
HIV Env, isolate T263-8 = HIV Env, isolate T263-8 (HIV)
HIV Env, isolate Du422.1 = HIV Env, isolate Du422.1 (HIV)
[9] = biological target: HIV Env, isolate HIV-001428-2.42 (HIV)
[10] = biological target: HIV Env, isolate 6811.v7.c18 (HIV)
[11] = biological target: HIV Env, isolate 6952.v1.c20 (HIV)
[12] = biological target: HIV Env, isolate 231965.c01 (HIV)
[13] = biological target: HIV Env, isolate X2088_C9 (HIV)
[14] = biological target: HIV Env of isolate Q23.17 (clade A) (HIV)
[15] = biological target: HIV Env of isolate X1254_C3 (clade G) (HIV)
[16] = biological target: HIV Env of isolate X1632_S2_B10 (clade G) (HIV)
[17] = biological target: HIV Env of isolate BJOX009000.02.4 (clade AE) (HIV)
[18] = biological target: HIV Env of isolate BJOX025000.01.1 (clade AE) (HIV)
[19] = biological target: HIV Env of isolate BJOX028000.10.3 (clade AE) (HIV)
[20] = biological target: HIV Env of isolate C1080.c03 (clade AE) (HIV)
[21] = biological target: HIV Env of isolate R1166.c01 (clade AE) (HIV)
[22] = biological target: HIV Env of isolate R2184.c04 (clade AE) (HIV)
[23] = biological target: HIV Env of isolate T251-18 (clade AG) (HIV)
[24] = biological target: HIV Env of isolate T255-34 (clade AG) (HIV)
[25] = biological target: HIV Env of isolate T278-50 (clade AG) (HIV)
[26] = biological target: HIV Env of isolate 1012_11_TC21_3257 (clade B) (HIV)
[27] = biological target: HIV Env of isolate 1056_10_TA11_1826 (clade B) (HIV)
[28] = biological target: HIV Env of isolate CNE58 (clade BC) (HIV)
[29] = biological target: HIV Env of isolate 1394C9G1(Rev-) (clade C) (HIV)
[30] = biological target: HIV Env of isolate BF1266.431a (clade C) (HIV)
[31] = biological target: HIV Env of isolate CAP210.2.00.E8 (clade C) (HIV)
[32] = biological target: HIV Env of isolate Ce1172_H1 (clade C) (HIV)
[33] = biological target: HIV Env of isolate Du172.17 (clade C) (HIV)
[34] = biological target: HIV Env of isolate 9004SS_A3_4 (clade A) (HIV)
[35] = biological target: HIV Env of isolate HIV-001428-2.42 (clade C) (HIV)
[36] = biological target: HIV Env of isolate HIV-16845-2.22 (clade C) (HIV)

B1: ePGDM9 (antibody, V domains shown)
VH: QAQLVQSGPEVRKPGTSVKVSCKNPGNTLTTYDLHWVRQVPGQGLQWMGWISHEGDKKVIVERFKAKVTIDWDRSTNTAYLQLSGLTSEDTAVYYCAKGSKHRLRDYALYDEDGALNWAVDVDYLANLEFWGQGTAVTVSS
VL: DIVLTQSPLSLSVTPGESASISCKSSQSLIHGDRNNYLAWYVQKPGRSPQLLIDLASERASGVPDRFSGSGSRKDFTLKISRVETEDVGTYYCMQGRESPWTFGQGTKVDIK
[1]
  IC80 (µg/ml) with constrains: > 100 µg/mL
[2]
  IC80 (µg/ml) with constrains: 70.1 µg/mL
HIV Env, isolate PVO.4
  IC80 (µg/ml) with constrains: 7.7 µg/mL
HIV Env, isolate CNE17
  IC80 (µg/ml) with constrains: 0.01 µg/mL
[3]
  IC80 (µg/ml) with constrains: 0.005 µg/mL
HIV Env, isolate 249MB10
  IC80 (µg/ml) with constrains: 0.028 µg/mL
[4]
  IC80 (µg/ml) with constrains: > 100 µg/mL
[5]
  IC80 (µg/ml) with constrains: 0.008 µg/mL
[6]
  IC80 (µg/ml) with constrains: 0.017 µg/mL
[7]
  IC80 (µg/ml) with constrains: 0.089 µg/mL
[8]
  IC80 (µg/ml) with constrains: 0.032 µg/mL
HIV Env, isolate T263-8
  IC80 (µg/ml) with constrains: 0.06 µg/mL
HIV Env, isolate Du422.1
  IC80 (µg/ml) with constrains: 53.2 µg/mL
[9]
  IC80 (µg/ml) with constrains: 0.008 µg/mL
[10]
  IC80 (µg/ml) with constrains: > 100 µg/mL
[11]
  IC80 (µg/ml) with constrains: 0.21 µg/mL
[12]
  IC80 (µg/ml) with constrains: 0.037 µg/mL
[13]
  IC80 (µg/ml) with constrains: > 100 µg/mL

B2: PGDM1400 (antibody, V domains shown)
VH: B1 VH with A2V, Q3H, V5T, N24A, T30K, Q39S, E89G, E112D, A126S
VL: B1 VL with I2F, L9H, Q27H, D54Y, E58S, R73D
[14]
  IC50 (µg/ml) with constrains: 0.001 µg/mL
  IC80 (µg/ml) with constrains: 0.005 µg/mL
[15]
  IC50 (µg/ml) with constrains: 45.4 µg/mL
[16]
  IC50 (µg/ml) with constrains: 0.034 µg/mL
[17]
  IC50 (µg/ml) with constrains: 1.1 µg/mL
  IC80 (µg/ml) with constrains: 4.42 µg/mL
[18]
  IC50 (µg/ml) with constrains: 0.055 µg/mL
  IC80 (µg/ml) with constrains: 0.22 µg/mL
[19]
  IC50 (µg/ml) with constrains: 0.121 µg/mL
  IC80 (µg/ml) with constrains: 0.483 µg/mL
[20]
  IC50 (µg/ml) with constrains: 0.001 µg/mL
  IC80 (µg/ml) with constrains: 0.005 µg/mL
[21]
  IC50 (µg/ml) with constrains: 1.48 µg/mL
  IC80 (µg/ml) with constrains: 5.92 µg/mL
[22]
  IC50 (µg/ml) with constrains: 0.006 µg/mL
  IC80 (µg/ml) with constrains: 0.022 µg/mL
[23]
  IC50 (µg/ml) with constrains: > 100 µg/mL
  IC80 (µg/ml) with constrains: > 100 µg/mL
[24]
  IC50 (µg/ml) with constrains: 0.046 µg/mL
  IC80 (µg/ml) with constrains: 0.182 µg/mL
[25]
  IC50 (µg/ml) with constrains: 5.41 µg/mL
[26]
  IC50 (µg/ml) with constrains: 0.076 µg/mL
[27]
  IC50 (µg/ml) with constrains: 3.38 µg/mL
[28]
  IC50 (µg/ml) with constrains: 0.003 µg/mL
[29]
  IC50 (µg/ml) with constrains: 0.003 µg/mL
[30]
  IC50 (µg/ml) with constrains: 0.006 µg/mL
[31]
  IC50 (µg/ml) with constrains: 0.33 µg/mL
[32]
  IC50 (µg/ml) with constrains: 0.218 µg/mL
[33]
  IC50 (µg/ml) with constrains: 5.42 µg/mL
[34]
  IC50 (µg/ml) with constrains: > 100 µg/mL
  IC80 (µg/ml) with constrains: > 100 µg/mL
[35]
  IC50 (µg/ml) with constrains: 0.014 µg/mL
[36]
  IC50 (µg/ml) with constrains: > 100 µg/mL

B3: ePGDM5 (antibody, V domains shown)
VH: B1 VH
VL: B1 VL with I2F, S26D, Q27H, I30Q, S81D, T85A
[1]
  IC80 (µg/ml) with constrains: > 100 µg/mL
[2]
  IC80 (µg/ml) with constrains: > 100 µg/mL
HIV Env, isolate PVO.4
  IC80 (µg/ml) with constrains: 5.57 µg/mL
HIV Env, isolate CNE17
  IC80 (µg/ml) with constrains: 0.028 µg/mL
[3]
  IC80 (µg/ml) with constrains: 0.009 µg/mL
HIV Env, isolate 249MB10
  IC80 (µg/ml) with constrains: 0.045 µg/mL
[4]
  IC80 (µg/ml) with constrains: > 100 µg/mL
[5]
  IC80 (µg/ml) with constrains: 0.014 µg/mL
[6]
  IC80 (µg/ml) with constrains: 0.063 µg/mL
[7]
  IC80 (µg/ml) with constrains: 0.088 µg/mL
[8]
  IC80 (µg/ml) with constrains: 0.034 µg/mL
HIV Env, isolate T263-8
  IC80 (µg/ml) with constrains: 0.076 µg/mL
HIV Env, isolate Du422.1
  IC80 (µg/ml) with constrains: 34.6 µg/mL
[9]
  IC80 (µg/ml) with constrains: 0.013 µg/mL
[10]
  IC80 (µg/ml) with constrains: > 100 µg/mL
[11]
  IC80 (µg/ml) with constrains: 0.132 µg/mL
[12]
  IC80 (µg/ml) with constrains: 0.035 µg/mL
[13]
  IC80 (µg/ml) with constrains: > 100 µg/mL

B4: ePGDM9 (antibody, V domains shown)
VH: B1 VH
VL: B1 VL
[14]
  IC80 (µg/ml) with constrains: 0.002 µg/mL
[15]
  IC50 (µg/ml) with constrains: 0.178 µg/mL
[16]
  IC50 (µg/ml) with constrains: 0.003 µg/mL
[17]
  IC50 (µg/ml) with constrains: 0.234 µg/mL
  IC80 (µg/ml) with constrains: 0.936 µg/mL
[18]
  IC50 (µg/ml) with constrains: 0.018 µg/mL
  IC80 (µg/ml) with constrains: 0.072 µg/mL
[19]
  IC50 (µg/ml) with constrains: 0.019 µg/mL
  IC80 (µg/ml) with constrains: 0.078 µg/mL
[20]
  IC50 (µg/ml) with constrains: 0.001 µg/mL
  IC80 (µg/ml) with constrains: 0.004 µg/mL
[21]
  IC50 (µg/ml) with constrains: 0.215 µg/mL
  IC80 (µg/ml) with constrains: 0.86 µg/mL
[22]
  IC50 (µg/ml) with constrains: 0.003 µg/mL
  IC80 (µg/ml) with constrains: 0.011 µg/mL
[23]
  IC50 (µg/ml) with constrains: > 100 µg/mL
  IC80 (µg/ml) with constrains: > 100 µg/mL
[24]
  IC50 (µg/ml) with constrains: 0.002 µg/mL
  IC80 (µg/ml) with constrains: 0.008 µg/mL
[25]
  IC50 (µg/ml) with constrains: 0.506 µg/mL
[26]
  IC50 (µg/ml) with constrains: 0.042 µg/mL
[27]
  IC50 (µg/ml) with constrains: 0.903 µg/mL
[28]
  IC50 (µg/ml) with constrains: 0.002 µg/mL
[29]
  IC50 (µg/ml) with constrains: 0.001 µg/mL
[30]
  IC50 (µg/ml) with constrains: 0.002 µg/mL
[31]
  IC50 (µg/ml) with constrains: 0.055 µg/mL
[32]
  IC50 (µg/ml) with constrains: 0.027 µg/mL
[33]
  IC50 (µg/ml) with constrains: 0.865 µg/mL
[34]
  IC50 (µg/ml) with constrains: > 100 µg/mL
  IC80 (µg/ml) with constrains: > 100 µg/mL
[35]
  IC50 (µg/ml) with constrains: 0.002 µg/mL
[36]
  IC50 (µg/ml) with constrains: > 100 µg/mL
